# Data from patent publication US20100015126A1, “Methods of Binding of Cross-Beta Structures By Chaperones” (priority 2006, published 2010).
# B1: Immunoglobulin heavy constant gamma 3 (G3m marker)/Ig gamma-3 chain C region (Heavy chain disease protein, HDC) (protein)
# chain: ASTKGPSVFPLAPCSRSTSGGTAALGCLVKDYFPEPVTVSWNSGALTSGVHTFPAVLQSSGLYSLSSVVTVPSSSLGTQTYTCNVNHKPSNTKVDKRVELKTPLGDTTHTCPRCPEPKSCDTPPPCPRCPEPKSCDTPPPCPRCPEPKSCDTPPPCPRCPAPELLGGPSVFLFPPKPKDTLMISRTPEVTCVVVDVSHEDPEVQFKWYVDGVEVHNAKTKPREEQYNSTFRVVSVLTVLHQDWLNGKEYKCKVSNKALPAPIEKTISKTKGQPREPQVYTLPPSREEMTKNQVSLTCLVKGFYPSDIAVEWESSGQPENNYNTTPPMLDSDGSFFLYSKLTVDKSRWQQGNIFSCSVMHEALHNRFTQKSLSLSPGK
# B2: V1-3 protein (Fragment) (protein)
# chain: QSALTQPRSVSGSPGQSVTISCTGTSSDVGGYNYVSWYQQHPGKAPKLMIYDVSKRPSGVPDRFSGSKSGNTASLTISGLQAEDEADYYCCSYAGSYTFH
# B3: Complement factor H-related protein 3 precursor/Complement factor H-related 3 (FHR-3, H factor-like protein 3, DOWN16)/Complement factor H-related 3, isoform CRA_c (protein)
# chain: QVKPCDFPDIKHGGLFHENMRRPYFPVAVGKYYSYYCDEHFETPSGSYWDYIHCTQNGWSPAVPCLRKCYFPYLENGYNQNYGRKFVQGNSTEVACHPGYGLPKAQTTVTCTEKGWSPTPRCIRVRTCSKSDIEIENGFISESSSIYILNKEIQYKCKPGYATADGNSSGSITCLQNGWSAQPICINSSEKCGPPPPISNGDTTSFLLKVYVPQSRVEYQCQPYYELQGSNYVTCSNGEWSEPPRCIHPCIITEENMNKNNIKLKGRSDRKYYAKTGDTIEFMCKLGYNANTSILSFQAVCREGIVEYPRCE
# B4: Immunoglobulin heavy constant mu/Full-length cDNA clone CS0DD006YL02 of Neuroblastoma of Homo sapiens (protein, UniProt P01871 1-474, looked up)
# Immunoglobulin heavy constant …: GSASAPTLFPLVSCENSPSDTSSVAVGCLAQDFLPDSITFSWKYKNNSDISSTRGFPSVLRGGKYAATSQVLLPSKDVMQGTDEHVVCKVQHPNGNKEKNVPLPVIAELPPKVSVFVPPRDGFFGNPRKSKLICQATGFSPRQIQVSWLREGKQVGSGVTTDQVQAEAKESGPTTYKVTSTLTIKESDWLGQSMFTCRVDHRGLTFQQNASSMCVPDQDTAIRVFAIPPSFASIFLTKSTKLTCLVTDLTTYDSVTISWTRQNGEAVKTHTNISESHPNATFSAVGEASICEDDWNSGERFTCTVTHTDLPSPLKQTISRPKGVALHRPDVYLLPPAREQLNLRESATITCLVTGFSPADVFVQWMQRGQPLSPEKYVTSAPMPEPQAPGRYFAHSILTVSEEEWNTGETYTCVVAHEALPNRVTERTVDKSTEGEVSADEEGFENLWATASTFIVLFLLSLFYSTTVTLFKVK
# B5: CDNA FLJ90170 fis, clone MAMMA1000370, highly similar to Ig alpha-1 chain C region/Immunoglobulin heavy constant alpha 1 (protein, UniProt P01876 1-398, looked up)
# Immunoglobulin heavy constant …: ASPTSPKVFPLSLCSTQPDGNVVIACLVQGFFPQEPLSVTWSESGQGVTARNFPPSQDASGDLYTTSSQLTLPATQCLAGKSVTCHVKHYTNPSQDVTVPCPVPSTPPTPSPSTPPTPSPSCCHPRLSLHRPALEDLLLGSEANLTCTLTGLRDASGVTFTWTPSSGKSAVQGPPERDLCGCYSVSSVLPGCAEPWNHGKTFTCTAAYPESKTPLTATLSKSGNTFRPEVHLLPPPSEELALNELVTLTCLARGFSPKDVLVRWLQGSQELPREKYLTWASRQEPSQGTTTFAVTSILRVAAEDWKKGDTFSCMVGHEALPLAFTQKTIDRLADWQMPPPYVVLDLPQETLEEETPGANLWPTTITFLTLFLLSLFYSTALTVTSVRGPSGNREGPQY
# B6: Ig lambda chain V-III region SH (protein)
# chain: SELTQDPAVSVALGQTVRITCQGDSLRSYYASWYQQKPGQAPVLVIYGKNNRPSGIPDRFSGSSSGNTASLTITGAQAEDEADYYCNSRDSS
# B7: CD5 antigen-like precursor (SP-alpha, CT-2, IgM-associated peptide)/CD5 molecule-like (protein)
# chain: SPSGVRLVGGLHRCEGRVEVEQKGQWGTVCDDGWDIKDVAVLCRELGCGAASGTPSGILYEPPAEKEQKVLIQSVSCTGTEDTLAQCEQEEVYDCSHDEDAGASCENPESSFSPVPEGVRLADGPGHCKGRVEVKHQNQWYTVCQTGWSLRAAKVVCRQLGCGRAVLTQKRCNKHAYGRKPIWLSQMSCSGREATLQDCPSGPWGKNTCNHDEDTWVECEDPFDLRLVGGDNLCSGRLEVLHKGVWGSVCDDNWGEKEDQVVCKQLGCGKSLSPSFRDRKCYGPGVGRIWLDNVRCSGEEQSLEQCQHRFWGFHDCTHQEDVAVICSG
# B8: Dapper homolog 1 (hDPR1) (Heptacellular carcinoma novel gene 3)/Dapper, antagonist of beta-catenin, homolog 1 (Xenopus laevis) (protein)
# chain: MKPSPAGTAKELEPPAPARGEQRTAEPEGRWREKGEADTERQRTRERQEATLAGLAELEYLRQRQELLVRGALRGAGGAGAAAPRAGELLGEAAQRSRLEEKFLEENILLLRKQLNCLRRRDAGLLNQLQELDKQISDLRLDVEKTSEEHLETDSRPSSGFYELSDGASGSLSNSSNSVFSECLSSCHSSTCFCSPLEATLSLSDGCPKSADLIGLLEYKEGHCEDQASGAVCRSLSTPQFNSLDVIADVNPKYQCDLVSKNGNDVYRYPSPLHAVAVQSPMFLLCLTGNPLREEDRLGNHASDICGGSELDAVKTDSSLPSPSSLWSASHPSSSKKMDGYILSLVQKKTHPVRTNKPRTSVNADPTKGLLRNGSVCVRAPGGVSQGNSVNLKNSKQACLPSGGIPSLNNGTFSPPKQWSKESKAEQAESKRVPLPEGCPSGAASDLQSKHLPKTAKPASQEHARCSAIGTGESPKESAQLSGASPKESPSRGPAPPQENKVVQPLKKMSQKNSLQGVPPATPPLLSTAFPVEERPALDFKSEGSSQSLEEAHLVKAQFIPGQQPSVRLHRGHRNMGVVKNSSLKHRGPALQGLENGLPTVREKTRAGSKKCRFPDDLDTNKKLKKASSKGRKSGGGPEAGVPGRPAGGGHRAGSRAHGHGREAVVAKPKHKRTDYRRWKSSAEISYEEALRRARRGRRENVGLYPAPVPLPYASPYAYVASDSEYSAECESLFHSTVVDTSEDEQSNYTTNCFGDSESSVSEGEFVGESTTTSDSEESGGLIWSQFVQTLPIQTVTAPDLHNHPAKTFVKIKASHNLKKKILRFRSGSLKLMTTV
# B9: Hypothetical protein DKFZp686I04196 (Fragment)/Immunoglobulin heavy constant gamma 2 (G2m marker)/Ig gamma-2 chain C region (protein)
# chain: ASTKGPSVFPLAPCSRSTSESTAALGCLVKDYFPEPVTVSWNSGALTSGVHTFPAVLQSSGLYSLSSVVTVPSSNFGTQTYTCNVDHKPSNTKVDKTVERKCCVECPPCPAPPVAGPSVFLFPPKPKDTLMISRTPEVTCVVVDVSHEDPEVQFNWYVDGVEVHNAKTKPREEQFNSTFRVVSVLTVVHQDWLNGKEYKCKVSNKGLPAPIEKTISKTKGQPREPQVYTLPPSREEMTKNQVSLTCLVKGFYPSDISVEWESNGQPENNYKTTPPMLDSDGSFFLYSKLTVDKSRWQQGNVFSCSVMHEALHNHYTQKSLSLSPGK
# Molecular target: T1, BiP-Sepharose (Homo sapiens, UniProt P11021)
# T1 construct: The human BiP gene except the signal peptide encoding region was obtained from Geneart (Germany); linker […]; made in house; host or cells: HEK 293E cells, transient transfection, PABC674 vector; secreted into the medium
# Assay: BiP-Sepharose extraction of proteins from patient plasma, serum, synovial fluid and mass-spectrometric identification
# Assay type: binding
# Settings: Sample B2: eluate of BiP-Sepharose contacted with AL amyloidosis patient I plasma
# Experimental: BiP was coated on CNBr-Sepharose (GE-Healthcare, Amersham Biosciences). Immobilization of BiP was performed essentially as described elsewhere in this application for NHS-Sepharose. CNBr-matrix was dissolved at 200 mg/ml in 1 mM HCl and treated the same as the NHS-matrix, except for an additional 5 minutes activation step in 1 mM HCl on a roller device before washing in this buffer. BiP was diluted in immobilization buffer (50 mM NaCl and 40 mM NaHCO3) to a concentration of 820 μg/ml. A total volume of 2 ml BiP solution (1640 μg BiP) was incubated with 360 mg beads. Negative control matrix was exposed to immobilization buffer, only. After overnight immobilization matrix was blocked with Tris and washed.
# Six samples were incubated with the BiP-Sepharose, IgIV-Sepharose and the control-Sepharose: Normal pooled plasma, plasma of a patient I or of a patient II, with AL amyloidosis, serum of a patient III with RA (Rheumatoid Factor (RF) titer 682), control serum and synovial fluid of a patient IV with RA (RF titer 23). All samples were diluted 20× in HBS and applied to 200 μl beads in two volumes of 500 μl. One volume was incubated for 4 h at RT and supernatant was discarded after centrifugation (2 minutes at 1400 rpm). Subsequently, the second volume was applied to the same matrix and incubated overnight on a roller device at 4° C. […] To collect the eluates, the matrices were centrifuged and the two eluates were pooled for each sample.
# Protein digests were desalted as described (Rappsilber et al., 2003), vacuum dried and dissolved in 2.5% formic acid.
# For analysis of peptide mixtures, an Agilent 1100 HPLC system (Agilent Technologies) connected to a Thermo Finnigan LTQ-MS (Thermo Electron, Bremen, Germany) was used. Protein digests were injected on a trap column (Reprosil C18 RP (Dr Maisch, Germany), 20 mm×100 μm I.D.) at 5 μl/minute. Subsequently, the peptides were transferred with a split-reduced flow rate of 100 nL/minute solvent A (0.1 M acetic acid) on the analytical column (Reprosil C18 RP, 20 cm×50 μm I.D.). […] The column effluent was directly introduced into the ESI source of the mass spectrometer via a butt-connected nano-ESI emitter (New Objectives, Woburn, Mass.). The mass spectrometer was operated in the positive ion mode and parent ions were selected for fragmentation in data-dependent mode.
# After mass spectrometric measurements, peak lists were generated using BioWorks software (Thermo Electron, Bremen, Germany). Protein identification was performed using Mascot software (www.matrixscience.com) by searching the IPIhuman database (version 3.24, downloaded from ftp://ftp.ebi.ac.uk/pub/databases/IPI/current) using the following settings: fully tryptic peptides, peptide tolerance 0.8 Da, MS/MS tolerance 0.9 Da, 1 missed cleavage allowed, carbamidomethyl (Cys) and oxidation (Met) as fixed and variable modification, respectively. The Scaffold software package (www.proteomesoftware.com) was used to parse the data and to filter peptides at a confidence level of 95%, allowing only protein identification with at least 2 peptides identified.
# T1 sequence (P11021 19-654): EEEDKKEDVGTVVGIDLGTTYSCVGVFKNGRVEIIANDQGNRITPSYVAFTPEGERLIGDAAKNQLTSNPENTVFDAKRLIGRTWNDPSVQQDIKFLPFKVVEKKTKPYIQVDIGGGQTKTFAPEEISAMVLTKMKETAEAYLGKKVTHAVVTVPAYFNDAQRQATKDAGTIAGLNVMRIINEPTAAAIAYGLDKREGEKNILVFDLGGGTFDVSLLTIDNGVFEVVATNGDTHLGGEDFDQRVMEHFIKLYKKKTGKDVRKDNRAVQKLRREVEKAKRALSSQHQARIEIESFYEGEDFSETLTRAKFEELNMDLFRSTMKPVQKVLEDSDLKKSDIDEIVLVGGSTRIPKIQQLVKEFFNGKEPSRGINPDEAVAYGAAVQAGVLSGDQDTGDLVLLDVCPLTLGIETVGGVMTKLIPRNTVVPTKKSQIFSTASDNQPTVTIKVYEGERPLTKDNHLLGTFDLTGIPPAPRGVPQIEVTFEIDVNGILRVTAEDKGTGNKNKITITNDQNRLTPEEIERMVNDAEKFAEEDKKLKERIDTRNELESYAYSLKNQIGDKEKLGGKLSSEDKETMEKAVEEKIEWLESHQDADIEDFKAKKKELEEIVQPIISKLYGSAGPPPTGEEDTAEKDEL
row,Molecule,# of peptides in sample A#
1,B1,2

# Same assay, conditions: Sample B3: eluate of BiP-Sepharose contacted with AL amyloidosis patient II plasma
row,Molecule,# of peptides in sample A#
1,B1,2
2,B2,2
3,B3,1
4,B4,4
5,B5,2

# Same assay, conditions: Sample B4: eluate of BiP-Sepharose contacted with RA patient III serum
row,Molecule,# of peptides in sample A#
1,B2,1
2,B4,10
3,B5,17
4,B6,2
5,B7,1
6,B8,2
7,B9,14
